Data on one protein can be found in publication PMC4866688, “Trypanosoma brucei DHFR-TS Revisited: Characterisation of a Bifunctional and Highly Unstable Recombinant Dihydrofolate Reductase-Thymidylate Synthase” (PLoS Neglected Tropical Diseases, 2016).

The term Km denotes the substrate concentration at which the rate is half of its maximum.

Substrate in the data set: O=c1ccn([C@H]2C[C@H](O)[C@@H](COP(=O)(O)O)O2)c(=O)[nH]1
The data set can be described thus: Kinetic analysis of TS activity (substrates). The class given is biochemical, Trypanosoma brucei. Conditions: other: clarified E. coli lysate, spectrophotometric assay. How it is done: The initial characterisation of TS was also carried out using a spectrophotometric assay. Owing to the pronounced instability of the recombinant protein, clarified ThyA^- E. coli lysates were used for characterisation, where the concentration of TS was calculated based on DHFR activity. […] . Enzymatic reactions were initiated by the addition of CH2THF (200 μM, Shircks Laboratories) and initial rates of CH2THF oxidation to DHF monitored by the increase in absorbance at 340 nm (ε = 6,200 M^-1 cm^-1). This method is not suitable for determination of the Km^app for CH2THF and a radiometric method was used instead. This method measures the release of tritiated water from 5-[^3H]-dUMP (American Radiochemicals, 14.3 Ci mmol^-1). Assays (40 μl final volume) contained 200 nM TS and varying amounts of CH2THF (37.5 μM– 4.8 mM) in DHFR-assay buffer. Reactions were initiated by adding 200 μM [^3H]-dUMP (5.55 × 10^5 dpm nmol^-1) and stopped after 10 min by the addition of 20 μl trichloroacetic acid. Residual 5-[^3H]-dUMP was removed by the addition of 200 μl of 10% (w/v) activated charcoal (Sigma). Aliquots (100 μl) of the supernatants were added to 2 ml of scintillation fluid (Pico-Fluor 40™, Packard Bioscience) and radioactivity determined using a Beckmann LS 6500 Scintillation Counter. […] Protein concentrations were determined using the BioRad protein assay based on the method of Bradford. […]

B1: T. brucei TS (Tsf-TbDHFR-TS) (Trypanosoma brucei brucei) (protein)
chain: MLSLTRILRKKIPVHELAGKISRPPLRPFSVVVASDEKGGIGDGGTIPWEIPEDMQYFRRVTTNLRGKNVKPSPSKRNAVVMGRKTWDSLPPKFRPLSNRLNVVLSRSATKEQLLAGIPDPIKRAEAANDVVAVNGGLEDALRMLVSKEHTSSIETVFCIGGGTIYKQALCAPCVNVLQAIHRTVVRPASNSCSVFFDIPAAGTKTPEGLELVRESITDERVSTGAGGKKYQFEKLVPRNSEEEQYLNLVGRIIDEGCTKCDRTGVGTRSLFGAQMRFSLRNNRLPLLTTKRVFWRGVCEELLWFLRGETNAKLLSDKGIHIWDGNGSRAFLDSRGLTDYDEMDLGPVYGFQWRHFGADYISCKVDSEGKGVDQIANIVKSLIENPDDRRMICTAWNPAALPRMALPPCHMMAQFYVSNGELSCMLYQRSCDMGLGVPFNIASYALLTFLMAKASGLRPGELVHTLGDAHVYSNHVEPCRKQLKRVPRPFPFIVFKQDKEFLEDFQESDIEVIDYSPYPVISMEMAV
notes: The open reading frame of DHFR-TS was amplified by PCR from T. brucei gDNA using specific oligonucleotides; made in house; host or cells: thyA- E. coli derived from BL21 Star (DE3); unpurified clarified lysate
Regarding B1, the Km was found to be 8.2 ± 0.6 µM.
